Measured values: publication PMC4656143

Molecular target: opto-DN-CREB
Experiment: thermal relaxation kinetics

stoichiometry N: 1
B1: CREB-bZIP (domain or fragment)
chain: ARKREVRLMKNREAARECRRKKKEYVKCLENRVAVLENQNKTLIEELKALKDLYCHKSD
